Experimental data as given in publication PMC5222340, “The Arginine Pairs and C-Termini of the Sso7c4 from Sulfolobus solfataricus Participate in Binding and Bending DNA”.

T1: C-terminally truncated Sso7c4 (Sulfolobus solfataricus P2, UniProt A0A0E3K9N8 1-48, del49-54)
T1 chain: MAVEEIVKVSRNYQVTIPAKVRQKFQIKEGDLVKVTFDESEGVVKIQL

B1: 5'-FAM-8-bp DNA (dsDNA)
DNA 1: CGCTAGCG
DNA 2: CGCTAGCG
B2: 5'-FAM-10-bp DNA (dsDNA)
DNA 1: CCTACGTAGG
DNA 2: CCTACGTAGG
B3: 24 bp FRET DNA (dsDNA)
DNA 1: CGTGCTCTGCGATCTCTTCGATAA
DNA 2: TTATCGAAGAGATCGCAGAGCACG
B4: 5'-FAM-20-bp DNA (dsDNA)
DNA 1: CCAACACTGGCCAGTGTTGG
DNA 2: CCAACACTGGCCAGTGTTGG
B5: 30 bp FRET DNA (dsDNA)
DNA 1: CGTGCTCTGCGATCTCTTCGATAACCATAG
DNA 2: CTATGGTTATCGAAGAGATCGCAGAGCACG
B6: 20-bp DNA unlabeled (dsDNA)
DNA 1: CCAACACTGGCCAGTGTTGG
DNA 2: CCAACACTGGCCAGTGTTGG

What was measured:
[1] = target: T2, Sso7c4 wild-type (Sulfolobus solfataricus P2, UniProt A0A0E3K9N8 1-54); experiment: fluorescence polarization; 20 mM Tris-Cl pH 7.5, no added salt, 25 C; FP with 100 nM FAM-DNA, 1 h at room temperature; details: protein: recombinant; chain copies: 2; label: 5'-FAM; blunt, self-complementary
Target sequence in this assay (A0A0E3K9N8 entry or part of it): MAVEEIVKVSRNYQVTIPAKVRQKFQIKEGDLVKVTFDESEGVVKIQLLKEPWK

[2] = target: T1, C-terminally truncated Sso7c4; experiment: as above; details: protein: recombinant; chain copies: 2; label: 5'-FAM; blunt, self-complementary
[3] = target: T1, C-terminally truncated Sso7c4; experiment: bulk FRET; saturating protein; slight change; 20 mM Tris-Cl pH 7.5, no added salt, 25 C; FP with 100 nM FAM-DNA, 1 h at room temperature; details: protein: recombinant; chain copies: 2; label: Cy3 and Cy5 on the 5' ends; blunt
[4] = target: T2, Sso7c4 wild-type; experiment: bulk FRET; saturating protein; DNA bent; 20 mM Tris-Cl pH 7.5, no added salt, 25 C; FP with 100 nM FAM-DNA, 1 h at room temperature; details: protein: recombinant; chain copies: 2; label: Cy3 and Cy5 on the 5' ends; blunt
[5] = target: Sso7c4-R22A (Sulfolobus solfataricus P2, UniProt A0A0E3K9N8 1-54, R22A); experiment: fluorescence polarization; 20 mM Tris-Cl pH 7.5, no added salt, 25 C; FP with 100 nM FAM-DNA, 1 h at room temperature; details: protein: recombinant; chain copies: 2; label: 5'-FAM; blunt, self-complementary
[6] = target: Sso7c4-R11A (Sulfolobus solfataricus P2, UniProt A0A0E3K9N8 1-54, R11A); experiment: as above; details: protein: recombinant; chain copies: 2; label: 5'-FAM; blunt, self-complementary
[7] = target: T1, C-terminally truncated Sso7c4; experiment: bulk FRET; saturating protein; DNA straightened; 20 mM Tris-Cl pH 7.5, no added salt, 25 C; FP with 100 nM FAM-DNA, 1 h at room temperature; details: protein: recombinant; chain copies: 2; label: Cy3 and Cy5 on the 5' ends; blunt
[8] = target: T2, Sso7c4 wild-type; experiment: tryptophan fluorescence quenching; 20 mM Tris-Cl pH 7.5, no added salt, 25 C; FP with 100 nM FAM-DNA, 1 h at room temperature; details: protein: recombinant; chain copies: 2; blunt, self-complementary
Target sequence in this assay (A0A0E3K9N8 entry or part of it): as above

Sequence of Sso7c4-R11A (A0A0E3K9N8 entry or part of it R11A | R11A R11A): as the sequence (A0A0E3K9N8 entry or part of it) above, with R11A counted along it
Sequence of Sso7c4-R22A (A0A0E3K9N8 entry or part of it R22A | R22A R22A): as the sequence (A0A0E3K9N8 entry or part of it) above, with R22A counted along it

Binder	Kd [1] [µM]	Kd [2] [µM]	binding result [4]	further results
B1	14.2 ± 0.26	15.9 ± 0.53		
B2	3.12 ± 0.16	11 ± 0.41		
B3			binds	binding result [3]: binds
B4	2.73 ± 0.18	12 ± 0.53		Kd [5]: 5.07 ± 0.15 µM; Kd [6]: 3.19 ± 0.12 µM
B5			binds	binding result [7]: binds
B6				Kd [8]: 22.8 µM
